Measured values as given in publication PMC7092807 (Biochemical and Biophysical Research Communications, 2004).

Target: the molecule itself
Test: SEC

B1: SARS-CoV soluble S ectodomain (Se) (domain or fragment)
chain: not shown
  stoichiometry N: 3
